Experimental data published in US20230295345A1 (published 2023).
Values belong to the binder of their own block, whether it stands above or below them.

Tests used:
[1] = biological target: T1, cynomolgus monkey TMPRSS6 expressed on HEK293T cells (CynoTMPRSS6-(His)6) (cynomolgus monkey, UniProt Q8IU80 10-811 (human entry)); assay: cell surface ELISA on fixed HEK293T cells expressing cynomolgus monkey TMPRSS6
T1 chain: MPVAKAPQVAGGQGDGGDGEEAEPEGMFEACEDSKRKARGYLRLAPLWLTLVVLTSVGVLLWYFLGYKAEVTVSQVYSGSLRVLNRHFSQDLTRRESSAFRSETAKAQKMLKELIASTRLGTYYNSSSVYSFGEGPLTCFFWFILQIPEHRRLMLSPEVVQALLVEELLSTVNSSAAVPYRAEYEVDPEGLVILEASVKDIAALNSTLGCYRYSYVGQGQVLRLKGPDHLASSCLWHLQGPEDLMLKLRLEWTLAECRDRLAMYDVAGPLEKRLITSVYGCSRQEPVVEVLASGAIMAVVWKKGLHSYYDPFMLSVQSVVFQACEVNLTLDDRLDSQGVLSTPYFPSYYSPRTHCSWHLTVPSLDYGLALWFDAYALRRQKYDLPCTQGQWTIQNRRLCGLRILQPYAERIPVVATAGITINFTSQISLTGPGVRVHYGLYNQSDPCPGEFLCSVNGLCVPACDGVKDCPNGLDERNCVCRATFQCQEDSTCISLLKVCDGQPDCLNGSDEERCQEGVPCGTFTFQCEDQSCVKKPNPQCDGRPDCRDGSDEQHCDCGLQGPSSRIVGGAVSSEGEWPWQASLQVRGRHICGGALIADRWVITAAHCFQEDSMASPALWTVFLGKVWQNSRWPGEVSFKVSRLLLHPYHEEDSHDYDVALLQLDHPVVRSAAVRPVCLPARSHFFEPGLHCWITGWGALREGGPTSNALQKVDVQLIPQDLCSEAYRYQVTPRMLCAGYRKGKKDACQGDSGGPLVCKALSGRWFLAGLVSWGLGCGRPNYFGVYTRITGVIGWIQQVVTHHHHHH
Description: HEK293T cells stably expressing mouse TMPRSS6 (generated by LakePharma Inc as described above, FIGS. 4J, 4L, 4N, 4P, 4R, 4T) or cynomolgus monkey (generated in house as described above, FIGS. 4K, 4M, 4O, 4Q, 4S, 4U) were fixed with methanol (100%), and washed with dPBS (Dulbecco’s phosphate-buffered saline, Corning Cellgro) before incubation with various concentrations of anti-TMPRSS6 antibodies and their humanized variants diluted in BSA medium (DMEM + 1% Pen/Strep + 10 mM HEPES + 1 mg/ml BSA (Sigma-Aldrich)). Purified mouse IgG (FIGS. 4J-4O) or Human IgG1 (FIGS. 4P-4U) was used as a control. After incubation, cells were washed with BSA medium and then incubated with goat anti-mouse (Invitrogen, FIGS. 4J-4O) or anti-human (Millipore, FIGS. 4P-4U) IgG conjugated with HRP as a 2° antibody. Finally, cells were washed with dPBS to remove unbound antibody and color developed with ELISA liquid substrate (Sigma-Aldrich), followed by stopping the reaction with addition of the same volume of ELISA liquid substrate of 1 M H₂SO₄. Bound antibody was measured by absorbance at OD₄₅₀ₙₘ.

[2] = biological target: T2, mouse TMPRSS6 expressed on HEK293T cells (MoTMPRSS6-(His)6) (mouse, UniProt Q9DBI0 1-811); assay: FACS on HEK293T cells stably expressing mouse TMPRSS6
T2 construct: stably expressed in HEK293T cells; also called murine TMPRSS6
T2 sequence: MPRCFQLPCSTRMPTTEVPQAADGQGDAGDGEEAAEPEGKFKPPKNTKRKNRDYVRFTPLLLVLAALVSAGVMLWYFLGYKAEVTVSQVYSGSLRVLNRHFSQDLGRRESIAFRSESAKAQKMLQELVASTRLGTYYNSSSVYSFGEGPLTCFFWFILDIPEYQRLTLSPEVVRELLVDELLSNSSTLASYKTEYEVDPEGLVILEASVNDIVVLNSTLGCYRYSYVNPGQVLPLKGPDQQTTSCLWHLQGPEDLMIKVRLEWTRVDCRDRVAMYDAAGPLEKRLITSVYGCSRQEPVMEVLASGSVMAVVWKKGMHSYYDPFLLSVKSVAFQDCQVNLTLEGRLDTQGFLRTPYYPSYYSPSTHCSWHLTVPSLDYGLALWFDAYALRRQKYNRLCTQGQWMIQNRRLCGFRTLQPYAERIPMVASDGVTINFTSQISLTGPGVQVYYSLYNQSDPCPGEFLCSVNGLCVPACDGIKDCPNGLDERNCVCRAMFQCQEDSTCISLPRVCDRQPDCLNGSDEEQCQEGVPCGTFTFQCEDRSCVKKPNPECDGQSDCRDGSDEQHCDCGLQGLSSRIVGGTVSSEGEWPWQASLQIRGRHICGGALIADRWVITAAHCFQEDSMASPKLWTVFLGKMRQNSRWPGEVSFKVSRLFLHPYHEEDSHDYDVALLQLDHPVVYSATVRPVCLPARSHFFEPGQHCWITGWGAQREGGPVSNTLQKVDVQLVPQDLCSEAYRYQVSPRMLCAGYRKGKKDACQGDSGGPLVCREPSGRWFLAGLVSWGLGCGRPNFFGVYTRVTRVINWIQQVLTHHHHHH
Description: (§1) Selected anti-TMPRSS6 antibodies were tested to determine whether any are capable of binding to TMPRSS6 from mouse and/or cynomolgus monkey. HEK293T cells stably expressing human TMPRSS6 (HuTMPRSS6-(His)₆) (generated by LakePharma Inc as described above), HEK293T cells stably expressing mouse TMPRSS6 (MoTMPRSS6-(His)₆) (SEQ ID NO: 98) (generated by LakePharma Inc as described above) and HEK293T cells transiently expressing cynomolgus monkey TMPRSS6 (CynoTMPRSS6-(His)₆) (SEQ ID NO: 99) (generated in house) were collected. HEK293T cells stably expressing human TMPRSS6 were used as a positive control and HEK293T cells were used as a negative control (as described above). Cells were blocked with dPBS + 3% BSA before incubation with anti-TMPRSS6 antibodies diluted in dPBS + 3% BSA. After incubation, cells were washed with dPBS and followed by another incubation with goat anti-mouse IgG conjugated with AlexaFluor-488 as a 2° antibody (Invitrogen). At last, cells were washed with dPBS to remove unbound antibody, re-suspended with dPBS + 1 mM EDTA, and then subjected to FACS analysis using a NOVOCYTE® Flow Cytometer (ACEA Biosciences, Inc., San Diego CA). Bound antibody was determined by excitation at 488 nm and measurement of emission (FITC-A) at 530 nm. Results for these assays are shown in histogram plots in FIGS. 4A-4I.

[3] = biological target: T1, cynomolgus monkey TMPRSS6 expressed on …; assay: FACS on HEK293T cells transiently expressing cynomolgus monkey TMPRSS6
Description: as §1

binding result [1]: binds
B1: hzMWTx-001Var anti-TMPRSS6 antibody (antibody, human IgG1, kappa, N297A, V domains shown)
VH: EVQLVQSGAEVKKPGASVKVSCKASGYTFTSYWITWVRQAPGQRLEWIGNIYPGSGSTYYNEKFKSKATITRDTSSRTAYMELSSLRSEDTAVYYCAPYDADYAMDYWGQGTLVTVSS
VL: DIQMTQSPSSLSASVGDRVTITCKASQDISNYLSWFQQKPGKAPKLLIYRANRLVEGVPSRFSGSGSGTDFTLTISSLQPEDFATYFCLQYDEFPLTFGGGTKVEIKR
notes: Humanized variant of MWTx-001, human IgG1/kappa

binding result [1]: binds
B2: hzMWTx-003Var anti-TMPRSS6 antibody (antibody, human IgG1, kappa, L234A L235A, V domains shown)
VH: QVQLVQSGAEVKKPGASVKVSCKASGFNIEDYYMHWVRQAPGQRLEWMGRIDPEDAETTYSPKFQGRVTIIPDTSANTAYMELSSLRSEDTAVYYCARSIYLDPMDYWGQGTLVTVSS
VL: DIQMTQSPKSLSASVGDRVTITCRASQDVTTALAWYQQKPGQSPKLLIYWATTRHSGVPSRFSGSGSGTDFTLTISSLQPEDFATYYCQQHYSTPYTFGQGTKLEIKR
notes: Humanized variant of MWTx-003, human IgG1/kappa

binding result [2]: no binding
binding result [1]: binds
B3: MWTx-002 anti-TMPRSS6 antibody (antibody, mouse IgG2b, kappa, V domains shown)
VH: EVQLQQSGAELVKPGASVKLSCTASGFNIKDYYIHWVKERTEQGLEWFGRIDPEDGESEYAPKFQGKATLTADTSSNTAYLQLSSLTSEDTAVYYCTRGDSMMVTYFDYWGQGTTLTVSS
VL: DIVMTQSHKFMSTSVGDRVSITCKASQDVSTAVAWYQQKPGQSPKLLIYWAFTRHTGVPDRFTSTGSGTDYALTISSVQAEDLALYYCQQHYRSPWTFGGGTKLEIKR
notes: Mouse monoclonal antibody from a hybridoma (ATCC PTA-126760)

binding result [1]: binds
B4: MWTx-001 anti-TMPRSS6 antibody (antibody, mouse IgG2a, kappa, V domains shown)
VH: QVQLQQPGAELAKPGASVKMSCKASGYTFTSYWITWVKQRPGQDLEWIGNIYPGSGSTYYNEKFKSKATLTVDTSSRTAYMQLSSLTSADSAVYYCAPYDSDYAMDYWGQGTSVTVSS
VL: DIKMTQSPSSMYASLGERVTITCKASQDINNYLSWFQQKPGKSPKTLIYRANRLVDGVPSRVSGSGSGQDYSLTISSLEYEDVGIYFCLQYDEFPLTFGAGTKLELKR
notes: Mouse monoclonal antibody from a hybridoma (ATCC PTA-126759)

binding result [1]: binds
B5: hzMWTx-002Var anti-TMPRSS6 antibody (antibody, human IgG1, kappa, N297A, V domains shown)
VH: EVQLVQSGAEVKKPGASVKVSCKASGFNIKDYYIHWVRQATGQGLEWMGRIDPEDAESEYAPKFQGRVTITADTSTDTAYMELSSLRSEDTAVYYCTRGDSMMVTYFDYWGQGTLVTVSS
VL: DIQMTQSPSSLSASVGDRVTITCKASQDVSTAVAWYQQKPGKAPKLLIYWAFTRHTGVPSRFSGSGSGTDYALTISSLQPEDFATYYCQQHYRSPWTFGGGTKVEIKR
notes: Humanized variant of MWTx-002, human IgG1/kappa

binding result [3]: binds
B6: MWTx-003 anti-TMPRSS6 antibody (antibody, mouse IgG2b, kappa, V domains shown)
VH: EVQLQQSGAELVKPGASVKLSCTASGFNIEDYYIHWVKERTEQGLEWIGRIDPEDGETTYAPQFQGKATIIPDTSSNTAYMQLSSLTSEDAAVYYCARSIYLDPMDYWGQGTSVTVSS
VL: DIVMTQSHKFMSTSVGDRVSITCKASQDVTTAVAWYQQKPGQSPKILIYWATTRHTGVPDRFTGSISGTTYILTISSVQAEDLALYYCQQHYSTPYTFGGGTKLEIKR
notes: Mouse monoclonal antibody from a hybridoma (ATCC PTA-126761); also called r4K12B (recombinantly expressed version, same HC and LC)
